Test results: CN111153994A (WUHAN ABEX BIOTECHNOLOGY CO LTD, dated 2020)

Molecular target: T1, 人TNFα蛋白 (人肿瘤坏死因子) (human, UniProt P01375 77-233)
T1 construct: also called human TNFα
Test: ELISA: human TNFα coated on the plate, serially diluted FC9 as primary antibody, HRP goat anti-human IgG-Fc as secondary

T1 sequence (P01375 77-233 limits assumed): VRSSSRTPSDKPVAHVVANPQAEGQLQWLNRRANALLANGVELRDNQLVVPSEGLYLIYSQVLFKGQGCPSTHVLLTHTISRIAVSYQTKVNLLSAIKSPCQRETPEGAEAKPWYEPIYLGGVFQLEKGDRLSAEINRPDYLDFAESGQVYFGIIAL

B1: FC9抗体 (针对人肿瘤坏死因子的人源单克隆抗体) (antibody, human IgG1, kappa, V domains shown)
VH: QLVQSGAEVKKPGASVKVSCKASGYTFTSYYMHWVRQAPGQGLEWMGIINPSGGSTSYAQKFQGRVTMTRDTSTSTVYMELSSLRSEDTAVYYCASFDYWGQGTLVTVSS
VL: EIVLTQSPGTLSLSPGERATLSCRTSQSVSSSYLAWYQQKPGQAPRLLIYGASSRATGIPDRFSGSGSGTDFTLTISRLEPEDFAVYFCQQFGTSSITFGQGTRLEIKR
notes: Point mutant of FC0 in an aggregation-prone region of the heavy chain; Expressed in 293F cells from pVitro2-neo-mcs, purified on Protein A and detected with anti-human IgG-Fc; also called FC9 antibody
An EC50 of about 0.4 nM was found for B1 in this work.
